{
  "source": "paper PMC5992170",
  "about": "“Modular ssDNA binding and inhibition of telomerase activity by designer PPR proteins”",
  "molecules": {"B1": {"name": "cPPR-Telo1 target ssDNA (ssDNA)", "DNA": "TTAGGGTTAG"}, "B2": {"name": "Telo-ssDNA (ssDNA)", "DNA": "GGTTAGGGTTAG"}, "B3": {"name": "Primer a (ssDNA)", "DNA": "TTAGGGTTAGGGTTAGGG"}, "B4": {"name": "Primer GG-a (Telo-ssDNA-GG) (structured_DNA)", "DNA": "GGTTAGGGTTAGGGTTAGGG"}},
  "key": {"[1]": {"tested_on": "cPPR-NRE (synthetic construct)", "experiment": "EMSA", "conditions": "dU as printed (AUUGUAUAUA); EMSA: 10 mM HEPES pH 8.0, 1 mM EDTA, 50 mM KCl, 2 mM DTT, 0.1 mg/ml BSA, 0.02% Tween-20, room temperature 30 min, 0.83 uM probe, 0-10 uM protein (Kd values …)"}, "[2]": {"biological_target": "T1, cPPR-Telo1 (tag removed) (synthetic construct, UniProt PDB:5ORQ_1 1-364)", "T1 chain": "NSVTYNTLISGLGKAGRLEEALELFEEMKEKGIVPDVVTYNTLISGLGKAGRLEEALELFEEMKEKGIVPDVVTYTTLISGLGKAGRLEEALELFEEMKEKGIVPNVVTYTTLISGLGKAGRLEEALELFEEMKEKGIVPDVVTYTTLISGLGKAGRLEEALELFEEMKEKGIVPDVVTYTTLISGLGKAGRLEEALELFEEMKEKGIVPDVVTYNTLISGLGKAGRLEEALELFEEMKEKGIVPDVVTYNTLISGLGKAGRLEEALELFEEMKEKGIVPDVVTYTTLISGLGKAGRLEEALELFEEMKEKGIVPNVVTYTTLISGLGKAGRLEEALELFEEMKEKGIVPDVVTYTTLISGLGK", "experiment": "X-ray crystallography (1.95 A); pH 4.6, 20 mM CaCl2; EMSA: 10 mM HEPES pH 8.0, 1 mM EDTA, 50 mM KCl, 2 mM DTT, 0.1 mg/ml BSA, 0.02% Tween-20, room temperature 30 min, 0.83 uM probe, 0-10 uM protein (Kd values only in Supplementary Fig. 2 graphic)", "conditions": "protein: recombinant; tags: none (GST-His removed by TEV); single strand"}, "[3]": {"biological_target": "T2, cPPR-Telo1 (synthetic construct, UniProt PDB:5ORQ_1 1-364)", "T2 chain": "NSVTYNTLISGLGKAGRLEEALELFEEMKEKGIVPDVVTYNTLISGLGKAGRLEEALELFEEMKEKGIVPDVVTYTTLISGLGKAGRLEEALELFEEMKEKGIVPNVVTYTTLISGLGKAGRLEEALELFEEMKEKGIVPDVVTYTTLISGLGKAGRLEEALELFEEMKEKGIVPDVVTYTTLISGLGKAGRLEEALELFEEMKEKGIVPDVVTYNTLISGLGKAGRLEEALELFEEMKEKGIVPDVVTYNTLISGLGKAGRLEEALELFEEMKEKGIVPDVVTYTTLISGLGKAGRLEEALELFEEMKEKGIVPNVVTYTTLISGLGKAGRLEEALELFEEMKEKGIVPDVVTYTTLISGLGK", "experiment": "EMSA; EMSA: 10 mM HEPES pH 8.0, 1 mM EDTA, 50 mM KCl, 2 mM DTT, 0.1 mg/ml BSA, 0.02% Tween-20, room temperature 30 min, 0.83 uM probe, 0-10 uM protein (Kd values only in Supplementary Fig. 2 graphic)", "conditions": "protein: recombinant, tags: GST-His (pETM30), label: 5'-fluorescein via hexaethyleneglycol spacer"}},
  "data": [
    {"molecule": "AUUGUAUAUA [NRE ssDNA]", "values": [
      {"measurement": "binding signal (fold lower affinity than NRE RNA)", "setting": "[1]", "value": 3}
    ]},
    {"molecule": "B1", "values": [
      {"measurement": "binding result", "setting": "[2]", "value": "binds"}
    ]},
    {"molecule": "B2", "values": [
      {"measurement": "binding result", "setting": "[3]; single strand", "value": "binds"}
    ]},
    {"molecule": "B3", "values": [
      {"measurement": "binding result", "setting": "[3]; single strand, cannot form G4", "value": "binds"}
    ]},
    {"molecule": "B4", "values": [
      {"measurement": "binding result", "setting": "[3]; potential intramolecular G4", "value": "binds"}
    ]}
  ]
}
